Results as given in the supplement of paper PMC5998384.

Assays:
[1] = tested on: HeLa Kyoto; test: melting temperature (median over replicates), in situ; higher = more thermally stable
[2] = tested on: HeLa Kyoto; test: solubility change mitosis vs G1/S (difference of NP-40 vs SDS log2 ratios) (log2 ratio difference); higher = more soluble in mitosis
[3] = tested on: HeLa Kyoto; test: thermal stability score vs G1/S (z-score of summed log2 fold changes over temperatures); higher = more thermally stable than in G1/S
[4] = tested on: HeLa Kyoto; test: solubility in G1/S (NP-40 vs SDS abundance) (log2 ratio); higher = more soluble; conditions: cell cycle stage: G1/S
[5] = cell cycle stage: early G1 (4.5 h after nocodazole release)
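For melting temperature (median over replicates), in situ in this document: HeLa Kyoto cells synchronized by double thymidine or nocodazole block, proteins quantified by TMT10plex mass spectrometry, three independent biological replicates.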
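For solubility change mitosis vs G1/S (difference of NP-40 vs SDS log2 ratios) in this document: synchronized HeLa Kyoto cells (double thymidine block for G1/S, nocodazole release for mitosis), protein amounts in NP-40 versus SDS lysates quantified by mass spectrometry, three biological replicates.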
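For solubility in G1/S (NP-40 vs SDS abundance) in this document: HeLa Kyoto cells arrested at G1/S by double thymidine block, proteins quantified by TMT10plex mass spectrometry in mild NP-40 versus SDS extracts, three biological replicates.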
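For thermal stability score vs G1/S (z-score of summed log2 fold changes over temperatures) in this document: synchronized HeLa Kyoto cells, proteins quantified by TMT10plex mass spectrometry, three biological replicates, mitosis taken 0.5 h after nocodazole release, G1/S directly after double thymidine block.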

Row | Sequence | melting temperature ([1]; cell cycle stage: G1/S) | melting temperature ([1]; cell cycle stage: mitosis) | solubility change mitosis (log2) [2] | thermal stability score [3, 5] | thermal stability score ([3]; cell cycle stage: mitosis) | solubility in G1/S (log2) [4]
1 | MEVMNLMEQPIKVTEWQQTYTYDSGIHSGANTCVPSVSSKGIMEEDEACGRQYTLKKTTTYTQGVPPSQGDLEYQMSTTARAKRVREAMCPGVSGEDSSLLLATQVEGQATNLQRLAEPSQLLKSAIVHLINYQDDAELATRALPELTKLLNDEDPVVVTKAAMIVNQLSKKEASRRALMGSPQLVAAVVRTMQNTSDLDTARCTTSILHNLSHHREGLLAIFKSGGIPALVRMLSSPVESVLFYAITTLHNLLLYQEGAKMAVRLADGLQKMVPLLNKNNPKFLAITTDCLQLLAYGNQESKLIILANGGPQALVQIMRNYSYEKLLWTTSRVLKVLSVCPSNKPAIVEAGGMQALGKHLTSNSPRLVQNCLWTLRNLSDVATKQEGLESVLKILVNQLSVDDVNVLTCATGTLSNLTCNNSKNKTLVTQNSGVEALIHAILRAGDKDDITEPAVCALRHLTSRHPEAEMAQNSVRLNYGIPAIVKLLNQPNQWPLVKATIGLIRNLALCPANHAPLQEAAVIPRLVQLLVKAHQDAQRHVAAGTQQPYTDGVRMEEIVEGCTGALHILARDPMNRMEIFRLNTIPLFVQLLYSSVENIQRVAAGVLCELAQDKEAADAIDAEGASAPLMELLHSRNEGTATYAAAVLFRISEDKNPDYRKRVSVELTNSLFKHDPAAWEAAQSMIPINEPYGDDMDATYRPMYSSDVPLDPLEMHMDMDGDYPIDTYSDGLRPPYPTADHMLA [JUP] | 53.5 °C | 52.8 °C | -0.103 | -2.2 | -2.86 | -0.169
2 | MEVNPPKQEHLLALKVMRLTKPTLFTNIPVTCEEKDLPGDLFNQLMRDDPSTVNGAEVLMLGEMLTLPQNFGNIFLGETFSSYISVHNDSNQVVKDILVKADLQTSSQRLNLSASNAAVAELKPDCCIDDVIHHEVKEIGTHILVCAVSYTTQAGEKMYFRKFFKFQVLKPLDVKTKFYNAESDLSSVTDEVFLEAQIQNMTTSPMFMEKVSLEPSIMYNVTELNSVSQAGECVSTFGSRAYLQPMDTRQYLYCLKPKNEFAEKAGIIKGVTVIGKLDIVWKTNLGERGRLQTSQLQRMAPGYGDVRLSLEAIPDTVNLEEPFHITCKITNCSERTMDLVLEMCNTNSIHWCGISGRQLGKLHPSSSLCLALTLLSSVQGLQSISGLRLTDTFLKRTYEYDDIAQVCVVSSAIKVES [TRAPPC13] | 50 °C | 49.9 °C | -0.173 | -0.207 | 0.0312 | 0.0799
3 | MEVPAAGRVPAEGAPTAAVAEVRCPGPAPLRLLEWRVAAGAAVRIGSVLAVFEAAASAQSSGASQSRVASGGCVRPARPERRLRSERAGVVRELCAQPGQVVAPGAVLVRLEGCSHPVVMKGLCAECGQDLTQLQSKNGKQQVPLSTATVSMVHSVPELMVSSEQAEQLGREDQQRLHRNRKLVLMVDLDQTLIHTTEQHCQQMSNKGIFHFQLGRGEPMLHTRLRPHCKDFLEKIAKLYELHVFTFGSRLYAHTIAGFLDPEKKLFSHRILSRDECIDPFSKTGNLRNLFPCGDSMVCIIDDREDVWKFAPNLITVKKYVYFQGTGDMNAPPGSRESQTRKKVNHSRGTEVSEPSPPVRDPEGVTQAPGVEPSNGLEKPARELNGSEAATPRDSPRPGKPDERDIWPPAQAPTSSQELAGAPEPQGSCAQGGRVAPGQRPAQGATGTDLDFDLSSDSESSSESEGTKSSSSASDGESEGKRGRQKPKAAPEGAGALAQGSSLEPGRPAAPSLPGEAEPGAHAPDKEPELGGQEEGERDGLCGLGNGCADRKEAETESQNSELSGVTAGESLDQSMEEEEEEDTDEDDHLIYLEEILVRVHTDYYAKYDRYLNKEIEEAPDIRKIVPELKSKVLADVAIIFSGLHPTNFPIEKTREHYHATALGAKILTRLVLSPDAPDRATHLIAARAGTEKVLQAQECGHLHVVNPDWLWSCLERWDKVEEQLFPLRDDHTKAQRENSPAAFPDREGVPPTALFHPMPVLPKAQPGPEVRIYDSNTGKLIRTGARGPPAPSSSLPIRQEPSSFRAVPPPQPQMFGEELPDAQDGEQPGPSRRKRQPSMSETMPLYTLCKEDLESMDKEVDDILGEGSDDSDSEKRRPEEQEEEPQPRKPGTRRERTLGAPASSERSAAGGRGPRGHKRKLNEEDAASESSRESSNEDEGSSSEADEMAKALEAELNDLM [CTDP1] | 49.2 °C | 50.6 °C | -0.102 | 1.52 | 2.78 | 0.0911
4 | MEVTGVSAPTVTVFISSSLNTFRSEKRYSRSLTIAEFKCKLELLVGSPASCMELELYGVDDKFYSKLDQEDALLGSYPVDDGCRIHVIDHSGARLGEYEDVSRVEKYTISQEAYDQRQDTVRSFLKRSKLGRYNEEERAQQEAEAAQRLAEEKAQASSIPVGSRCEVRAAGQSPRRGTVMYVGLTDFKPGYWIGVRYDEPLGKNDGSVNGKRYFECQAKYGAFVKPAVVTVGDFPEEDYGLDEI [TBCB] | 49.5 °C | 50.2 °C | 0.119 | -0.00262 | 0.00665 | 0.266
5 | MFAEAAKTTRPCGMAEFKEKPEAPTEQLDVACGQENLPVGAWPPGAAPAPFQYTPDHVVGPGADIDPTQITFPGCICVKTPCLPGTCSCLRHGENYDDNSCLRDIGSGGKYAEPVFECNVLCRCSDHCRNRVVQKGLQFHFQVFKTHKKGWGLRTLEFIPKGRFVCEYAGEVLGFSEVQRRIHLQTKSDSNYIIAIREHVYNGQVMETFVDPTYIGNIGRFLNHSCEPNLLMIPVRIDSMVPKLALFAAKDIVPEEELSYDYSGRYLNLTVSEDKERLDHGKLRKPCYCGAKSCTAFLPFDSSLYCPVEKSNISCGNEKEPSMCGSAPSVFPSCKRLTLETMKMMLDKKQIRAIFLFEFKMGRKAAETTRNINNAFGPGTANERTVQWWFKKFCKGDESLEDEERSGRPSEVDNDQLRAIIEADPLTTTREVAEELNVNHSTVVRHLKQIGKVKKLDKWVPHELTENQKNRRFEVSSSLILRNHNEPFLDRIVTCDEKWILYDNRRRSAQWLDQEEAPKHFPKPILHPKKVMVTIWWSAAGLIHYSFLNPGETITSEKYAQEIDEMNQKLQRLQLALVNRKGPILLHDNARPHVAQPTLQKLNELGYEVLPHPPYSPDLLPTNYHVFKHLNNFLQGKRFHNQQDAENAFQEFVESQSTDFYATGINQLISRWQKCVDCNGSYFD [SETMAR] | 51.9 °C | 51.7 °C | -0.0662 | 1.42 | 0.689 | -0.0719
6 | MFEEPEWAEAAPVAAGLGPVISRPPPAASSQNKGSKRRQLLATLRALEAASLSQHPPSLCISDSEEEEEERKKKCPKKASFASASAEVGKKGKKKCQKQGPPCSDSEEEVERKKKCHKQALVGSDSAEDEKRKRKCQKHAPINSAQHLDNVDQTGPKAWKGSTTNDPPKQSPGSTSPKPPHTLSRKQWRNRQKNKRRCKNKFQPPQVPDQAPAEAPTEKTEVSPVPRTDSHEARAGALRARMAQRLDGARFRYLNEQLYSGPSSAAQRLFQEDPEAFLLYHRGFQSQVKKWPLQPVDRIARDLRQRPASLVVADFGCGDCRLASSIRNPVHCFDLASLDPRVTVCDMAQVPLEDESVDVAVFCLSLMGTNIRDFLEEANRVLKPGGLLKVAEVSSRFEDVRTFLRAVTKLGFKIVSKDLTNSHFFLFDFQKTGPPLVGPKAQLSGLQLQPCLYKRR [RRP8] | 49.1 °C | 51.7 °C | 0.852 | 1.48 | 2.48 | -1.46
7 | MFFWCACCLMVAWRVSASDAEHCPELPPVDNSIFVAKEVEGQILGTYVCIKGYHLVGKKTLFCNASKEWDNTTTECRLGHCPDPVLVNGEFSSSGPVNVSDKITFMCNDHYILKGSNRSQCLEDHTWAPPFPICKSRDCDPPGNPVHGYFEGNNFTLGSTISYYCEDRYYLVGVQEQQCVDGEWSSALPVCKLIQEAPKPECEKALLAFQESKNLCEAMENFMQQLKESGMTMEELKYSLELKKAELKAKLL [C4BPB] | 54.8 °C | 54.8 °C | -0.0172 | 5.14 | 5.56 | 0.187
8 | MFGAAGRQPIGAPAAGNSWHFSRTMEELVHDLVSALEESSEQARGGFAETGDHSRSISCPLKRQARKRRGRKRRSYNVHHPWETGHCLSEGSDSSLEEPSKDYRENHNNNKKDHSDSDDQMLVAKRRPSSNLNNNVRGKRPLWHESDFAVDNVGNRTLRRRRKVKRMAVDLPQDISNKRTMTQPPEGCRDQDMDSDRAYQYQEFTKNKVKKRKLKIIRQGPKIQDEGVVLESEETNQTNKDKMECEEQKVSDELMSESDSSSLSSTDAGLFTNDEGRQGDDEQSDWFYEKESGGACGITGVVPWWEKEDPTELDKNVPDPVFESILTGSFPLMSHPSRRGFQARLSRLHGMSSKNIKKSGGTPTSMVPIPGPVGNKRMVHFSPDSHHHDHWFSPGARTEHDQHQLLRDNRAERGHKKNCSVRTASRQTSMHLGSLCTGDIKRRRKAAPLPGPTTAGFVGENAQPILENNIGNRMLQNMGWTPGSGLGRDGKGISEPIQAMQRPKGLGLGFPLPKSTSATTTPNAGKSA [GPATCH2] | 51.7 °C | 53 °C | -0.0138 | -0.791 | -1.01 | 0.0278
